Holding throughout (test): FP
Assay [1] deals with T1, Human IMPα3 aa 64–521 (lacking the IMPβ binding domain) (human, UniProt O00629 64-521).
T1 chain: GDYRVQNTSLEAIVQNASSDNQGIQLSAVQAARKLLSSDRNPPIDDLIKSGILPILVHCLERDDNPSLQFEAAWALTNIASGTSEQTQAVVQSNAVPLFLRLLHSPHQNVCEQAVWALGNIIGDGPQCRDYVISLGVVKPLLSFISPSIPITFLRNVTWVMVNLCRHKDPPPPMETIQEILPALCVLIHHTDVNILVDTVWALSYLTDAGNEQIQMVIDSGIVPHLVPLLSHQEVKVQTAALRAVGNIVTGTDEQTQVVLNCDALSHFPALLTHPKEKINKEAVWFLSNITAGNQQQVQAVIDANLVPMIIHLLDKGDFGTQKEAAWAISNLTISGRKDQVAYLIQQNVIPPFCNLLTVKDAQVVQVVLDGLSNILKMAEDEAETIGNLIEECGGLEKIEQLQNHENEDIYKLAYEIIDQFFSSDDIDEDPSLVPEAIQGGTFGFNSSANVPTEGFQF

Assay [2] addresses Human IMPα1 aa 71–529 (lacking the IMPβ binding domain) (human, UniProt P52292 71-529).
Assay [3] concerns the target Human IMPα5 aa 74–538 (lacking the IMPβ binding domain) (human, UniProt P52294 74-538).

No end group written: not given here.

Human IMPα5 aa 74–538 (lacking the IMPβ binding domain), sequence (P52294 74-538): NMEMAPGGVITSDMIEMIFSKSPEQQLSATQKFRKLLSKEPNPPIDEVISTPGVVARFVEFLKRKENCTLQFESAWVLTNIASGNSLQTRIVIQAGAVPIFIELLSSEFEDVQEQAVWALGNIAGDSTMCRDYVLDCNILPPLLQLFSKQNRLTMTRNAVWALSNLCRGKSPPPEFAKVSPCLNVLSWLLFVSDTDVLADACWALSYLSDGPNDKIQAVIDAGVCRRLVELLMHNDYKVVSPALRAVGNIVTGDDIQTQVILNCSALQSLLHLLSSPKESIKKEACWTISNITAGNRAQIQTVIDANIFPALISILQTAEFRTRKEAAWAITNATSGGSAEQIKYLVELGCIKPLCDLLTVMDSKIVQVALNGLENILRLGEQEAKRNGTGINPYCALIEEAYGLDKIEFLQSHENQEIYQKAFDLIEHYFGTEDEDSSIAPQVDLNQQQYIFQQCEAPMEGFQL

B1: FITC-labelled HeV M NLS2 peptide (peptide)
peptide: VRRAGKYYSVEYCKRKID
modifications: also: FITC-labelled, site not given here
In the case of B1, the Kd in assay [1] is 11500 nM.

B2: FITC-labelled HeV M NLS1 peptide (peptide)
peptide: SGKRKKIRTIAAYPLGVGKS
modifications: also: FITC-labelled, site not given here
B2: the Kd turned out to be 560 nM in assay [2], 2470 nM in assay [1] and 1470 nM in assay [3].
